Data set [1] deals with T1, GST-His-SHARP R3-4h (Homo sapiens, UniProt Q96T58 436-620).
T1 sequence: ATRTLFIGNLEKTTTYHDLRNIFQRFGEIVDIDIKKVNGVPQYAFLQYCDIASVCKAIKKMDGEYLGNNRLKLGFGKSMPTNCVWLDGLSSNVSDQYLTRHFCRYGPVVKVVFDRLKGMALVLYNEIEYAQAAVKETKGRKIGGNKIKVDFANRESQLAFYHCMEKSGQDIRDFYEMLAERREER
Description: UV crosslinking.

In data set [2] the target is T2, SHARP R2-3-4h (SHARP-RRM) (Homo sapiens, UniProt Q96T58 335-620).
T2 sequence: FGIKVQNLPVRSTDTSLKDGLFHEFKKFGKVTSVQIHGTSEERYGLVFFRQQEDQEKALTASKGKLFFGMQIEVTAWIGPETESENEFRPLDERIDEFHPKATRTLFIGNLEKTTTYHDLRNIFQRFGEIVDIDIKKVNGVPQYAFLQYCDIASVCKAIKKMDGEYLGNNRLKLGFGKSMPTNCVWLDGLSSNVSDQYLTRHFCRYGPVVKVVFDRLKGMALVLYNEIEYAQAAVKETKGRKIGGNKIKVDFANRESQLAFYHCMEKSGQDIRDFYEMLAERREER
The experiment in a line: competition.

B1: SRA RNA H12-H13 extended (structured_RNA)
RNA: GGGAGCAGGUAUGUGAUGACAUCAGCCGACGCCUGGCACUGCUGCAGGAACAGUGGGCUGGAGGAAAGUUGUCAAUACCUGUAAGAGACCGAAUUCACUGGCCGUCGUUUUACAACGUCGUGACUGGGAAAAC
As for B1, the binding result in data set [1] is “binds”.

B2: A15 (ssRNA)
RNA: AAAAAAAAAAAAAAA
Turning to B2, in data set [2], the binding result is “no binding”.

The record behind these values is paper PMC4041450.
